Drawing on patent publication US20070031832A1, this text covers TRF for six molecules.

One experiment concerns the target anti-Der p 1 monoclonal antibody 2C7. The experiment can be described thus: T7-DELFIA, comparison phage on 2C7-coated wells, time resolved fluorometry.
As to T7wt, the TRF amounted to 500 TRF.

The target is the same in a further experiment. The experiment can be described thus: T7-DELFIA, 50 µl phage lysate on 2C7-coated wells, time resolved fluorometry.
Regarding GDPNSSSVDKLGYWRVTESSNE (peptide, not shown: large carriers) [2c7pan42], the TRF stood at 64000 TRF.

The molecule GDPRTHR (peptide, not shown: large carriers) [2c7pan26] gave a TRF of 8500 TRF.

As for GDPNSRGKSREYLS (peptide, not shown: large carriers) [2c7pan14], the TRF was determined as 1800 TRF.

In the case of GDPNSSTSPR (peptide, not shown: large carriers) [2c7pan8], the TRF was found to be 1900 TRF.

GDPNSASGTA (peptide, not shown: large carriers) [2c7pan9] gave a TRF of 17000 TRF.
